Assay results published in IntAct's records for PubMed 31515488.

B1: Tektin-4 (Homo sapiens), Q8WW24 (parent)
chain: MAQTVPPCELPCKEYDVARNTGAYTSSGLATASFRTSKYLLEEWFQNCYARYHQAFADRDQSERQRHESQQLATETQALAQRTQQDSTRTVGERLQDTHSWKSELQREMEALAAETNLLLAQKQRLERALDATEVPFSITTDNLQCRERREHPNLVRDHVETELLKEAELIRNIQELLKRTIMQAVSQIRLNREHKETCEMDWSDKMEAYNIDETCGRHHSQSTEVQAHPYSTTFQESASTPETRAKFTQDNLCRAQRERLASANLRVLVDCILRDTSEDLRLQCDAVNLAFGRRCEELEDARYKLHHHLHKTLREITDQEHNVAALKQAIKDKEAPLHVAQTRLYLRSHRPNMELCRDAAQFRLLSEVEELNMSLTALREKLLEAEQSLRNLEDIHMSLEKDIAAMTNSLFIDRQKCMAHRTRYPTILQLAGYQ
B2: Notch homolog 2 N-terminal-like protein A (Homo sapiens), Q7Z3S9 (parent)
chain: MCVTYHNGTGYCKCPEGFLGEYCQHRDPCEKNRCQNGGTCVAQAMLGKATCRCASGFTGEDCQYSTSHPCFVSRPCLNGGTCHMLSRDTYECTCQVGFTGKECQWTDACLSHPCANGSTCTTVANQFSCKCLTGFTGQKCETDVNECDIPGHCQHGGTCLNLPGSYQCQCLQGFTGQYCDSLYVPCAPSPCVNGGTCRQTGDFTFECNCLPETVRRGTELWERDREVWNGKEHDEN
partner: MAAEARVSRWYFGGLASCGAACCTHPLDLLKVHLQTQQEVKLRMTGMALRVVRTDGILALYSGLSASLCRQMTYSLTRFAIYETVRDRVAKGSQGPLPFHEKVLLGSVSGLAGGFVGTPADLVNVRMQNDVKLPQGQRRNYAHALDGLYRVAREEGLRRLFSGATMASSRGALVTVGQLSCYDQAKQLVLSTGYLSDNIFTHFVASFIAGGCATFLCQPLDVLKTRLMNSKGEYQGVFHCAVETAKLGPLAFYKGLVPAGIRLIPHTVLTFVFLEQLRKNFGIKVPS
B3: Protein boule-like (Homo sapiens), Q8N9W6 (parent)
chain: MQTDSLSPSPNPVSPVPLNNPTSAPRYGTVIPNRIFVGGIDFKTNESDLRKFFSQYGSVKEVKIVNDRAGVSKGYGFVTFETQEDAQKILQEAEKLNYKDKKLNIGPAIRKQQVGIPRSSIMPAAGTMYLTTSTGYPYTYHNGVAYFHTPEVTSVPPPWPSRSVCSSPVMVAQPIYQQPAYHYQATTQYLPGQWQWSVPQPSASSAPFLYLQPSEVIYQPVEIAQDGGCVPPPLSLMETSVPEPYSDHGVQATYHQVYAPSAITMPAPVMQPEPIKTVWSIHY
partner: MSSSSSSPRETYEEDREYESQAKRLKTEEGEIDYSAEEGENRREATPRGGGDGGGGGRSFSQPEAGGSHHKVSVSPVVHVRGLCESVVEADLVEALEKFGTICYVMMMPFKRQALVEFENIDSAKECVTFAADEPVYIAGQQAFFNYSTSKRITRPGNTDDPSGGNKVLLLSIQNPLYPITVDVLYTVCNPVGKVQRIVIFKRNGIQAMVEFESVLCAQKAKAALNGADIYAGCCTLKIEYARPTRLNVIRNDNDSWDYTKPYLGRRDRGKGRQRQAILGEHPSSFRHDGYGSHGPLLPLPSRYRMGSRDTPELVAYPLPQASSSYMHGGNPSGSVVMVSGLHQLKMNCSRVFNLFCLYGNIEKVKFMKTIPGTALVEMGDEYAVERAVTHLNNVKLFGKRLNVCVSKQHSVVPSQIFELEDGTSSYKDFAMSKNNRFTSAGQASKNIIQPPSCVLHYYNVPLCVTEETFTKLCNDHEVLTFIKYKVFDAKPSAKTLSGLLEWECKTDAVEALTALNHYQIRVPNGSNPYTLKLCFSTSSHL
B4: Charged multivesicular body protein 4a (Homo sapiens), Q9BY43 (parent)
chain: MSGLGRLFGKGKKEKGPTPEEAIQKLKETEKILIKKQEFLEQKIQQELQTAKKYGTKNKRAALQALRRKKRFEQQLAQTDGTLSTLEFQREAIENATTNAEVLRTMELAAQSMKKAYQDMDIDKVDELMTDITEQQEVAQQISDAISRPMGFGDDVDEDELLEELEELEQEELAQELLNVGDKEEEPSVKLPSVPSTHLPAGPAPKVDEDEEALKQLAEWVS
partner: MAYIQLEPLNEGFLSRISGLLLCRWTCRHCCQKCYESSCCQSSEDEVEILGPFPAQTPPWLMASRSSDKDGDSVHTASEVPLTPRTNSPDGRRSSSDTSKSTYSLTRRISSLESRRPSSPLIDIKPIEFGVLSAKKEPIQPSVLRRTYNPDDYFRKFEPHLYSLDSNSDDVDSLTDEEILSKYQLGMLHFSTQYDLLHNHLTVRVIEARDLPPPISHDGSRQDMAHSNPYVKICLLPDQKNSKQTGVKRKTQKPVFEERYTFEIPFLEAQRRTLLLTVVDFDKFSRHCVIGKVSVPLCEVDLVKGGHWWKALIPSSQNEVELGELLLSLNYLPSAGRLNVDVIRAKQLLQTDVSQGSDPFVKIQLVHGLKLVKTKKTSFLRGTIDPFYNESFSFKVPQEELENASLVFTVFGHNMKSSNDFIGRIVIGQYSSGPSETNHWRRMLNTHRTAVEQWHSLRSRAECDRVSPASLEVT

Variants of: B1
Conditions: with trip6_human TRIP6, Q15654
trip6_human TRIP6, Q15654, sequence (Q15654 whole entry): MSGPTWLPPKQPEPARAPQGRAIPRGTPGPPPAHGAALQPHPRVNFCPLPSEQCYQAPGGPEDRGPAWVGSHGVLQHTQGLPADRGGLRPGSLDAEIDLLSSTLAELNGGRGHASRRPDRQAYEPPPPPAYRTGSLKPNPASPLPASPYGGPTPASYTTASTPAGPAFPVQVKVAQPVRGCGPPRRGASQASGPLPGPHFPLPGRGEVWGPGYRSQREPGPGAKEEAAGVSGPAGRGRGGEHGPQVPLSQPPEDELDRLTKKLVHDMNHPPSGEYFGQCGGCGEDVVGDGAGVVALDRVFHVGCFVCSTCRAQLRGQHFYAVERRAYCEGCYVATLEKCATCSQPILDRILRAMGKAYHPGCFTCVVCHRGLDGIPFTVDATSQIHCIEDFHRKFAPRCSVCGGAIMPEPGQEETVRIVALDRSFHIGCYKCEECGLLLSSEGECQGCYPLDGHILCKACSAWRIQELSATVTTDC

| Variant | effect of a mutation on the interaction |
| --- | --- |
| MAQTVPPCELPCKEYDVARNTGAYTSSGLATASFRTSKYLLEEWFQNCYARYHQAFADRDQSEWQRHESQQLATETQALAQRTQQDSTRTVGERLQDTHSWKSELQREMEALAAETNLLLAQKQRLERALDATEVPFSITTDNLQCRERREHPNLVRDHVETELLKEAELIRNIQELLKRTIMQAVSQIRLNREHKETCEMDWSDKMEAYNIDETCGRHHSQSTEVQAHPYSTTFQESASTPETRAKFTQDNLCRAQRERLASANLRVLVDCILRDTSEDLRLQCDAVNLAFGRRCEELEDARYKLHHHLHKTLREITDQEHNVAALKQAIKDKEAPLHVAQTRLYLRSHRPNMELCRDAAQFRLLSEVEELNMSLTALREKLLEAEQSLRNLEDIHMSLEKDIAAMTNSLFIDRQKCMAHRTRYPTILQLAGYQ [R64W] | with no effect |

Variants of: B1
Conditions: with maga4_human MAGEA4, P43358
maga4_human MAGEA4, P43358, sequence (P43358 whole entry): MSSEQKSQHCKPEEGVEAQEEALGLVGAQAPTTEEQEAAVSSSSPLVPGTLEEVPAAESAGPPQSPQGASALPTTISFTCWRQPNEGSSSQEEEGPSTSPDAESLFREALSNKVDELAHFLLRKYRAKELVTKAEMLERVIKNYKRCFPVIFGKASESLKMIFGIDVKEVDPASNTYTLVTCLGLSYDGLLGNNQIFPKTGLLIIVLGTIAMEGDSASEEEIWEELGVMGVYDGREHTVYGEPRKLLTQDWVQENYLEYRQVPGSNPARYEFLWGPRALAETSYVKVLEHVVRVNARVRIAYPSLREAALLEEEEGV

| Variant | effect of a mutation on the interaction |
| --- | --- |
| MAQTVPPCELPCKEYDVARNTGAYTSSGLATASFRTSKYLLEEWFQNCYARYHQAFADRDQSEWQRHESQQLATETQALAQRTQQDSTRTVGERLQDTHSWKSELQREMEALAAETNLLLAQKQRLERALDATEVPFSITTDNLQCRERREHPNLVRDHVETELLKEAELIRNIQELLKRTIMQAVSQIRLNREHKETCEMDWSDKMEAYNIDETCGRHHSQSTEVQAHPYSTTFQESASTPETRAKFTQDNLCRAQRERLASANLRVLVDCILRDTSEDLRLQCDAVNLAFGRRCEELEDARYKLHHHLHKTLREITDQEHNVAALKQAIKDKEAPLHVAQTRLYLRSHRPNMELCRDAAQFRLLSEVEELNMSLTALREKLLEAEQSLRNLEDIHMSLEKDIAAMTNSLFIDRQKCMAHRTRYPTILQLAGYQ [R64W] | with no effect |

Variants of: B2
Conditions: with dic_human SLC25A10, Q9UBX3

| Variant | effect of a mutation on the interaction |
| --- | --- |
| R74Q | with no effect |
| A115T | with no effect |

Variants of: B3
Conditions: with hnrll_human HNRNPLL

| Variant | effect of a mutation on the interaction |
| --- | --- |
| MQTDSLSPYPNPVSPVPLNNPTSAPRYGTVIPNRIFVGGIDFKTNESDLRKFFSQYGSVKEVKIVNDRAGVSKGYGFVTFETQEDAQKILQEAEKLNYKDKKLNIGPAIRKQQVGIPRSSIMPAAGTMYLTTSTGYPYTYHNGVAYFHTPEVTSVPPPWPSRSVCSSPVMVAQPIYQQPAYHYQATTQYLPGQWQWSVPQPSASSAPFLYLQPSEVIYQPVEIAQDGGCVPPPLSLMETSVPEPYSDHGVQATYHQVYAPSAITMPAPVMQPEPIKTVWSIHY [S9Y] | with no effect |
| MQTDSLSPSPNPVSPVPLNNPTSAPRYGTVIPNRIFVGGIDFKTNESDLRKFFSQYGSVKEVKIVNDRAGVSKGYGFITFETQEDAQKILQEAEKLNYKDKKLNIGPAIRKQQVGIPRSSIMPAAGTMYLTTSTGYPYTYHNGVAYFHTPEVTSVPPPWPSRSVCSSPVMVAQPIYQQPAYHYQATTQYLPGQWQWSVPQPSASSAPFLYLQPSEVIYQPVEIAQDGGCVPPPLSLMETSVPEPYSDHGVQATYHQVYAPSAITMPAPVMQPEPIKTVWSIHY [V78I] | with no effect |
| MQTDSLSPSPNPVSPVPLNNPTSAPRYGTVIPNRIFVGGIDFKTNESDLRKFFSQYGSVKEVKIVNDRAGVSKGYGFVTFETQEDAQKILQEAEKLNYKDKKLNIGPAIRKQQVGIPRSSIMPAAGTMYLTTSTGYPYTYHNGVAYFHTPEVTSVPPPWPSRSVCSSPVMVAQPIYQQPAYHYQATTQYLPGQWQWSVPQPSASSAPFLYLQPSEVIYQPVEIAQDGGCVPPPLSLMETSVPEPYSDHGVQATYHQVYAPSAITMPAPVIQPEPIKTVWSIHY [M270I] | with no effect |

Variants of: B4
Conditions: with syt17_human SYT17, Q9BSW7

| Variant | effect of a mutation on the interaction |
| --- | --- |
| MSGLGRLFGKGKKEKGPTPEEAIQKLKETEKILIKKQEFLEQKIQQELQTAKKYGTKNKRAALQALRRKKRFEQQLAQTDGTLSTLEFQREAIENATTNAEVLRTMELAAQSMKKAYQDMDIDKVDELMTDITEQQEVAQQISDAISRPMGFRDDVDEDELLEELEELEQEELAQELLNVGDKEEEPSVKLPSVPSTHLPAGPAPKVDEDEEALKQLAEWVS [G153R] | with no effect |
